This series is described as follows: label from the status in PepcDB records.
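Further: failed if final PepcDB status was selected cloned or expressed and not failed if soluble or beyond.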

For the sequence “MAETLITKPPLSLSFTSLSSMLPSLSLSTANRHLSVTDTIPLPNSNSNATPPLRIAIIGFGNYGQFLAETLISQGHILFAHSRSDHSSAARRLGVSYFTDLHDLCERHPDVVLLCTSILSIENILKTLPFQRLRRNTLFVDVLSVKEFAKTLLLQYLPEDFDILCTHPMFGPQSVSSNHGWRGLRFVYDKVRIGEERLRVSRCESFLEIFVREGCEMVEMSVTDHDKFAAESQFITHTLGRLLGMLKLISTPINTKGYEALLDLAENICGDSFDLYYGLFVYNNNSLEVLERIDLAFEALRKELFSRLHGVVRKQSFEGEAKKVHVFPNCGENDASLDMMRSEDVVVKYEYNSQVSGSVNDGSRLKIGIVGFGNFGQFLGKTMVKQGHTVLAYSRSDYTDEAAKLGVSYFSDLDDLFEEHPEVIILCTSILSTEKVLESLPFQRLKRSTLFVDVLSVKEFPRNLFLQTLPQDFDILCTHPMFGPESGKNGWNNLAFVFDKVRIGMDDRRKSRCNSFLDIFAREGCRMVEMSCAEHDWHAAGSQFITHTVGRLLEKLSLESTPIDTKGYETLLKLVENTAGDSFDLYYGLFLYNPNAMEQLERFHVAFESLKTQLFGRLHSQHSHELAKSSSPKTTKLLTS”, the protein production entry is “failed”.

Regarding “MAETVGMILCGGFGKRLRPLTEKIPKPLIEIKEGYTILDKQLFDLKNAGINTVYLLTGFLGERIEERYGDNYKGLRIEYVREEKPLGTLNAIRLGMEAIDGEKQCIIRNGDVVADLNIKKMIHLGEMSDYPLTMFITRMQSPYGIVETSGDKIINFREKPLLDYYINAGVYFSKGNLDFGDFESGDIEKTLFPLMAKENKLGYYREDGLFWMAIDTSKELEEIRKEYRNREDKPWGYEKILINTEKYLTKELFIREGYRTSFHYHEEKDETMYIISGSGYIEFDNRKEYFSKNDTIRIEPGERHSIVAMENTVLHEVSTPHLNDTVRVQDYYTRLEHHHHHH”, the protein production entry is reported as “not failed”.

On to “MAEVERPQLYLVTPPEIDLEIFPDRLAAVLDSTEVACLRLALAGKDEDRIARTGDALREVAHARDVALVIENHVLMVERLGLDGVHLTDGARLVRKLRKDLGPDAILGAFCGRTRHEGINAAEAGADYVAFGPVGTTALGDGSLAEAELFGWWSEMIEVPVVAEGALTPEKVAELAPLTDFFAVGEEIWREEDAAAALRRLLAPLGLEHHHHHH”, for which the protein production result was “not failed”.

For “MAFLKVVPLEKALEVVQSFKISPGIEEVPIEKGLGRIAAEDIYSPIDVPPFDRATVDGYAVRAEDTFMASEASPVRLKVIGSVHAGEEPKFKLGKGEAAYISTGAMLPGNADAVIQFEDVERVNGEILIYKPAYPGLGVMKKGIDIEKGRLLVKKGERLGFKQTALLSAVGINKVKVFRKPKVAVISTGNEIVPPGNELKPGQIYDINGRALCDAINELGGEGIFMGVARDDKESLKALIEKAVNVGDVVVISGGASGGTKDLTASVIEELGEVKVHGIAIQPGKPTIIGVIKGKPVFGLPGYPTSCLTNFTLLVVPLLLRALGREGKIGKKVARLKHKVFSVKGRRQFLPVKLEGDLAVPILKGSGAVTSFIDADGFVEIPETVESLDEGEEVEVTLFKGW”, the protein production entry is “not failed”.

For the sequence “MAFPQRKRTPSFSSSVLDSVYRSIDESDGLQSDLKGSINENVSSSSSSPSPNKKDDKLTTLRRAIMDEEHWLYARSSTTTTNSSDSSSFSSSEAESYRTKRRLRKLAEQGKRSGDERQRTKRTVMDNDSRLFSKSDDDKKPKAVKIIEELKRSKQPVSPGARLTSFLNSIFQSNAKKVKLCSVGKTTDVKSSSSKSCFSRTRNKTDNNNNNCKKLERSIRFYPVRVTIDGDCRDYAQKHITRVRKPIPEFTAKKSVKEEIKTNDHHTEFTCITRNIGLKDFVRSNKYEGKEEEEDAWSHSSSDLFELDSYRIGMGRYLKELPVYETTDFKTNQAIARSLLL”, the protein production result was “failed”.

“MAFRITSQLRPVGNQFGGSRRFATTVADGAKQTYNKFSIMGEFAPVAIIGGFVGLAVLMAGHSLKQQLMHAPAISTRKNRRAAVAEVDDPENCVSSADKFINKSWLRKVGQIQDKSKAILSDPTRPNPFTTPRNAETLNSVGVAPKGI”: the protein production entry is given as “failed”.

Turning to “MAFRMSEQPRTIKIYNLLAGTNEFIGEGDAYIPPHTGLPANSTDIAPPDIPAGFVAVFNSDESSWHLVEDHRGKTVYDVASGDALFISELGPLPENVTWLSPEGEFQKWNGTAWVKDTEAEKLFRIREAEETKNNLMQVASEHIAPLQDAADLEIATEEEISLLEAWKKYRVLLNRVDTSTAQDIEWPALP”, the protein production entry is on record as “not failed”.

For the sequence “MAFSAPEPELSVVVPTLNEAETVATLLAALAAQRDVALELLLCDGGSTDGTAALVRGRAGDLPFPVTVTETPPGRGRQMNAGAAAARGATFLFLHADSIIADPLALRRGLDHLAAARRSDKRAAGHFRLRFAGDSPSPLAYRFYERKARLHRPGCTHGDQGLLIPREFFDQVGPFDEGLPILEDVRLAERIAAMGTWVLLPAEIITSARRFETEGLRERQTLNAILMNFAAIGWQQGVEELVAGYRSQDRSGRLRLGPHLARIAGLTAALPRQERLRLWYLTGGYVRGNAWQIPLFLDVRNAWRRGGDDGATPLLSLHDRWFDLLTDNPAGRAAAALMTFLWFRLTLRREMKDWPGILRTPLEHHHHHH”, the protein production result is given as “failed”.

As for “MAFSPLCGVNCTSRPSASTINTFLTKAQHDVTLTDTDTRIFIKNIKTGVTMEQFRNSLQEFGAMQVYFYEPGSNNDGWAWVGFENKEAALKVIEESEKMQEEMNEENLNEMQNEDNEEQGSNSFYAEDEDKKDEEEEEEEEEY”, the protein production entry was “failed”.

On to “MAFWAGGSPSVVDYFPSEDFYRCGYCKNESGSRSNGMWAHSMTVQDYQDLIDRGWRRSGKYVYKPVMNQTCCPQYTIRCRPLQFQPSKSHKKVLKKMLKFLAKGEVPKGSCEDEPMDSTMDDAVAGDFALINKLDIQCDLKTLSDDIKESLESEGKNSKKEEPQELLQSQDFVGEKLGSGEPSHSVKVHTVPKPGKGADLSKPPCRKAKEIRKERKRLKLMQQNPAGELEGFQAQGHPPSLFPPKAKSNQPKSLEDLIFESLPENASHKLEVRLVPVSFEDPEFKSSFSQSFSLYVKYQVAIHQDPPDECGKTEFTRFLCSSPLEAETPPNGPDCGYGSFHQQYWLDGKIIAVGVIDILPNCVSSVYLYYDPDYSFLSLGVYSALREIAFTRQLHEKTSQLSYYYMGFYIHSCPKMKYKGQYRPSDLLCPETYVWVPIEQCLPSLENSKYCRFNQDPEAVDEDRSTEPDRLQVFHKRAIMPYGVYKKQQKDPSEEAAVLQYASLVGQKCSERMLLFRN”, for which the protein production result was “failed”.

Consider “MAGAGGGNDIQWCFSQVKGAVDDDVAEADIISTVEFNHSGELLATGDKGGRVVIFQQEQENKIQSHSRGEYNVYSTFQSHEPEFDYLKSLEIEEKINKIRWLPQKNAAQFLLSTNDKTIKLWKISERDKRPEGYNLKEEDGRYRDPTTVTTLRVPVFRPMDLMVEASPRRIFANAHTYHINSISINSDYETYLSADDLRINLWHLEITDRSFNIVDIKPANMEELTEVITAAEFHPNSCNTFVYSSSKGTIRLCDMRASALCDRHSKLFEEPEDPSNRSFFSEIISSISDVKFSHSGRYMMTRDYLSVKIWDLNMENRPVETYQVHEYLRSKLCSLYENDCIFDKFECCWNGSDSVVMTGSYNNFFRMFDRNTKRDITLEASRENNKPRTVLKPRKVCASGKRKKDEISVDSLDFNKKILHTAWHPKENIIAVATTNNLYIFQDKVN”, for which the protein production entry was “failed”.

For “MAGAITLACTIRFEANAEHVYLSSGTKQTVYHYPFPMSTIHITLNGERKEVPAGSTVSELLVIADADRQPVAVVVNEHIVRPDQRDSYILQERDQVEILVFAGGGLEHHHHHH”, the protein production entry is recorded as “not failed”.

As for “MAGASHDIHPPKVEYFDLRDHTNTDPKGFVRHVDHYRVEPWGLYMARTSDHPQFHYLESWLLPDLGLRASIFHYHPYHQRDQDHYVDIGTFTRGDDVWKSEDHYLDLVVRTGRDTELLDVDELMEAHTTGLLDTATAEQAILTATTAIDGIAAHGHDLGRWLASIGMPIDWR”, the protein production entry is recorded as “not failed”.
